Laboratory results: PMC10794152

What was measured:
[1] = target: full-length human basigin (human); test: MST; Alexa Fluor 488-labelled full-length basigin held at 0.1 µM; PfRH5 or PfRCR titrated 2 µM to 0.12 nM; 20 mM Tris pH 8.0, 200 mM NaCl, 1 mg/ml salmon sperm DNA, 0.02% DDM; 25 °C
[2] = target: basigin ectodomain (human); test: MST; Alexa Fluor 488-labelled BSG^ecto held at 0.25 µM; PfRH5 or PfRCR titrated 8 µM to 3.91 nM; 20 mM Tris pH 8.0, 200 mM NaCl, 1 mg/ml salmon sperm DNA, 0.01% Tween-20; 25 °C

For PfRH5 (natural protein), the Kd [1] was 120 nM and the Kd [2] was 190 nM.
